According to US11857648B2, “Dimerization strategies and compounds for molecular imaging and/or radioimmunotherapy” (UNIVERSITY OF PITTSBURGH—OF THE COMMONWEALTH SYSTEM OF …, priority 2016, dated 2024):

How the values were obtained:
[1] = tested on: bxpc3 and 4T1 tumor xenografts; experiment: PET/CT imaging, subcutaneous xenograft mouse model; assay type: in vivo, NCr nude mice; conditions: 1 hour post injection
Method: In vivo PET/CT imaging was conducted in NCr nude mice bearing bxpc3 (human pancreatic adenocarcinoma cell line) and 4T1 (a murine breast cancer cell line that overexpresses integrin αvβ3 and CD13) tumor xenografts.
Mice were injected with bxpc3 cells (1 million cells in 150 μL PBS) into the subcutaneous flank of the right shoulder and 4T1 cells (1 million cells in 150 μL PBS) into the subcutaneous flank of the left shoulder.

[2] = PET/CT imaging, orthotopic xenograft mouse model; assay type: in vivo, Balb/c mice; conditions: Balb/c, mouse, iv, total radioactivity, 1 hour post injection
Method: (§1) In vivo PET/CT imaging was conducted in Balb/c mice. One week after the orthotropic implantation of 1×10^6 luciferase-transfected KPCP cancer cells into the pancreas of Balb/c mice, the mice were used for PET imaging. Either the CNGRC-(^68Ga)NOTA-RGDyK heterodimer (“CNGRC” disclosed as SEQ ID NO: 1), (^68Ga)NOTA(CNGRC) (“CNGRC” disclosed as SEQ ID NO: 1), or (^68Ga)NOTA(RGDyK)] were injected into the bloodstream via tail vein injection. Blocking studies were conducted for the heterodimer studies by co-injecting 100× of CNGRC (SEQ ID NO: 1) and RGDyK. Small animal PET/CT was performed at 1 hour post injection of tracers (FIGS. 15A-15C).

[3] = tested on: luciferase-transfected KPCP cancer cells; experiment: PET/CT imaging, orthotopic xenograft mouse model; assay type: in vivo, Balb/c mice; conditions: 1 hour post injection
Method: as §1

[4] = PET/CT imaging, spontaneous transgenic mouse model; conditions: KCH (Pdx1-Cre;K-RasG12D/+; HMGB1−/−), mouse, in vivo, iv, total radioactivity, 1 hour post injection
Method: (§2) In vivo PET/CT imaging was conducted in the genetically engineered KCH (Pdx1-Cre;K-RasG12D/+; HMGB1−/−) mouse model. High mobility group box 1 (HMGB1) is a critical regulator of autophagy, a major pathway for degradation of effete proteins and damaged organelles, and the conditional genetic ablation of HMGB1 limited to the pancreas inhibits autophagy, promotes proliferation, activates normally quiescent pathways, and renders mice extraordinarily sensitive to K-RasG12D/+-driven pancreatic carcinogenesis. The progression of PanINs from low grade PanINI to high grade PanIN3 could be observed as early as seven days (normally three-nine months) after birth in KCH (Pdx1-Cre;K-RasG12D/+;HMGB1−/−). PET imaging normally was performed˜6 weeks old KCH mice.
(§3) Either the CNGRC-(^68Ga)NOTA-RGDyK (“CNGRC” disclosed as SEQ ID NO: 1) heterodimer, (^68Ga)NOTA(CNGRC) (“CNGRC” disclosed as SEQ ID NO: 1), or (^68Ga)NOTA(RGDyK)] were injected into the bloodstream via tail vein injection. Blocking studies were conducted for the heterodimer studies by co-injecting 100× of CNGRC (SEQ ID NO: 1) and RGDyK. Small animal PET/CT was performed at 1 hour post injection of tracers (FIGS. 16A-16D).

[5] = tested on: KCH (Pdx1-Cre;K-RasG12D/+; HMGB1−/−) mouse model; experiment: PET/CT imaging, spontaneous transgenic mouse model
Method: as §2, §3

Which in vivo performance [1] does the source give for `N=C(N)NCCC[C@@H]1NC(=O)CNC(=O)[C@H](CC(N)=O)NC(=O)[C@@H](NC(=O)CCOCCOCCOCCOCCNC(=O)C(CCn2nnc3c2CCC2C(CC3)C2COC(=O)NCCOCCOCCOCCOCCC(=O)NCCCC[C@@H]2NC(=O)[C@@H](Cc3ccc(O)cc3)NC(=O)[C@H](CC(=O)O)NC(=O)CNC(=O)[C@H](CCCNC(=N)N)NC2=O)N2CCN(CC(=O)O)CCN(CC(=O)O)CC2)CSSC[C@@H](C(N)=O)NC1=O` (some centres unmarked) [CNGRC-(^68Ga)NOTA-RGDyK, metal not drawn] here?
Its in vivo performance is “longer blood retention, better tumor/non-tumor ratios”.

And the tissue uptake at 1 h ([2]; blood, read-out: uptake in blood)?
The tissue uptake at 1 h was 0.1 %ID/g.

And the tissue uptake at 1 h ([2]; kidney, read-out: uptake in kidney)?
The tissue uptake at 1 h was 2.2 %ID/g.

And the tissue uptake at 1 h ([2]; liver, read-out: uptake in liver)?
The tissue uptake at 1 h was 1.8 %ID/g.

What about the tissue uptake at 1 h ([2]; muscle, read-out: uptake in muscle) of the same compound?
The tissue uptake at 1 h was 0.1 %ID/g.

And the tissue uptake at 1 h ([2]; pancreas, read-out: uptake in pancrease)?
The tissue uptake at 1 h was 0.36 %ID/g.

And the tissue uptake at 1 h ([2]; spleen, read-out: uptake in spleen)?
Its tissue uptake at 1 h is 1.1 %ID/g.

What about the in vivo performance [3] of the same compound?
Its in vivo performance is “longer blood retention, better tumor/non-tumor ratios”.

What about the “uptake in orthotopic tumor” value [3] of the same compound?
Its value is 1.4 % ID/g.

What about the tissue uptake at 1 h ([4]; uptake in blood) of the same compound?
The tissue uptake at 1 h was 0.23 %ID/g.

What about the tissue uptake at 1 h ([4]; uptake in kidney) of the same compound?
Its tissue uptake at 1 h is 5 %ID/g.

And the tissue uptake at 1 h ([4]; uptake in liver)?
The tissue uptake at 1 h was 4.7 %ID/g.

What about the tissue uptake at 1 h ([4]; uptake in muscle) of the same compound?
The tissue uptake at 1 h was 0.38 %ID/g.

And the tissue uptake at 1 h ([4]; uptake in spleen)?
The tissue uptake at 1 h was 3.1 %ID/g.

And the in vivo performance ([5]; 1 hour post injection)?
The in vivo performance was “longer blood retention, better tumor/non-tumor ratios”.

And the “uptake in malignant pancreas” value ([5]; 1 hour post injection)?
Its value is 5.9 % ID/g.

What about the specific tumor uptake ([5]; PET imaging) of the same compound?
The specific tumor uptake was “showed specific tumor uptake”.
